Key:
[1] = target: Asn150Ala mutant rat mu opioid receptor (rat) (UniProt P33535); assay: cell-based or functional assay
[2] = target: wild-type rat mu opioid receptor (rat) (UniProt P33535); assay: cell-based or functional assay
cAMP production = assay: basal level cAMP production of MC-4 receptor mutant; format: cell-based; conditions: FIG. 2
Description: FIG. 2 is a graph showing the constitutive activity of a D146M MC-4 receptor mutant as assayed by measuring basal level cAMP production.
(§1) Briefly, HEK293 cells were cotransfected, as described above, with an expression vector encoding either the wild-type MC-4 receptor or the Asp146Met mutant MC-4 receptor and the reporter construct, SMS-Luc. As a negative control, cells were transfected with SMS-Luc and pcDNA1. Basal and ligand (αMHS) induced activity of the negative control, the wild-type MC-4 receptor, and the Asp146Met mutant MC-4 receptor were measured using the luciferase assay described above. […] Other constitutively active MC-4 receptors may be generated by this or any other approach and introduced as transgenics into animals of the invention

[3] = system: SMS-Luc reporter in HEK293 cells; assay: SMS-Luc luciferase reporter assay of MC-4 receptors in HEK293 cells; format: cell-based
Procedure: as §1

[4] = system: phospholipase C-mediated production of inositol phosphate in COS-7 cells; conditions: absence of agonist; cited from earlier work
[5] = system: SMS-Luc reporter in HEK293 cells; assay: SMS-Luc luciferase reporter assay of CCK-BR receptors in HEK293 cells; format: cell-based; conditions: FIG. 3
Procedure: In addition to these studies, luciferase assays were performed to measure the constitutive activity of the Leu325Glu CCK-BR mutant. HEK293 cells were transfected (as described above) with SMS-Luc and an expression vector encoding any one of pcDNA1, wild-type CCK-BR, or Leu325Glu CCK-BR.

[6] = system: SRE-Luc + Gq5i reporter in HEK293 cells; assay: SRE-Luc/Gq5i luciferase reporter assay in transfected HEK293 cells; format: cell-based; conditions: for stimulation of basal level activity: Asn150Ala mutant versus wild-type receptor; for Ligand Induced Activity (Light Emission) / Basal Activity (Light Emission): HEK293 cells; for Ligand Induced Activity (Light Emission): ligand DAMGO; for Basal Activity (Light Emission): no ligand
Procedure: Constitutive activity of the Asn150Ala mutant rat mu opioid receptor was assessed using a luciferase assay. The rat mu opioid receptor is a Gαi coupled receptor. Therefore we chose to use the Gq5i reporter system, described in detail above (Broach and Thorner, supra), which switches the signaling pathway from Gαi to Gαq for reliable positive readout. HEK293 cells were transfected with the reporter construct SRE-Luc, an expression vector containing nucleic acid encoding Gq5i (Broach and Thorner, supra), and an expression vector containing nucleic acid encoding either the wild-type or the Asn150Ala mutant rat mu opioid receptor. Basal and ligand-stimulated luciferase activity was measured. The ligand used in this assay was [D-Ala^2-MePhe^4, Gly-ol^5]enkephalin] (DAMGO). As a negative control, HEK293 cells were transfected with pcDNA1 (empty vector DNA), SRE-Luc, and the expression vector containing nucleic acid encoding Gq5i (Broach and Thorner, supra).
The luciferase assay was carried out as follows. On day 1, HEK293 cells in a T75 flask were washed with 15 ml serum-free media (or PBS), trypsinized with 5 ml 0.05% trypsin-EDTA (Gibco #25300-062), incubated at 37° C. for 3 minutes at which time 6-7 ml complete HEK293 media (Gibco #12100-046) and 10% Fetal Bovine Serum (Intergen #1050-90) were added. Thereafter, cells were collected in 50 ml centrifuge tubes, pelleted at 800-900 rpm (RCF ˜275), and resuspend in 20 ml complete media. The cells were counted using a haemocytometer and diluted to 85,000 cells/ml in complete media. Using a repeat pipettor or cell plater, 100 μl of cells were added to each well of a Primaria 96-well plate (Falcon #353872). Cells were then incubated at 37° C., 5% CO2 until use at 48 hours.
On day 3, cells were transfected using LipofectAMINE™ according to the manufacturer's protocol (Gibco #18324-012, Rockville, Md.).
On day 4, cells were stimulated as follows. Ligands for the receptor, either DAMGO or a non-peptide ligand (e.g., naloxone or naltrexone), were diluted to a desired concentration in serum-free media containing 0.15 mM PMSF (or other protease inhibitor(s)). The transfection media was then completely removed from cells and 50-100 μl stimulation media (i.e., media containing candidate ligands or the corresponding ligand free solvent) was added to each well. The cells were incubated for the desired time (standard is overnight) at 37° C., 5% CO2, although the optimal stimulation time may vary depending on the particular receptor used. The optimal incubation time may be determined systematically by testing a range of incubation times and determining which one yields the highest level of stimulation. For concomitant assessment of two ligands (e.g., ligand induced inhibition of forskolin stimulated CRE activity) each stimulus is prepared at two times the desired final concentration and mixed in equal volumes prior to addition to cells.
On day 5, an assay for luciferase expression was carried out according to the manufacturer's instructions (Packard, Meridin, Conn.)

[D-Ala^2-MePhe^4, Gly-ol^5]enkephalin (peptide)
Ligand Induced Activity (Light Emission), SRE-Luc + Gq5i luciferase reporter in HEK293 cells (Light Emission) [1]: 87000
Ligand Induced Activity (Light Emission), SRE-Luc + Gq5i luciferase reporter in HEK293 cells (Light Emission) [2]: 87500

Asp146Met mutant MC-4 receptor: melanocortin-4 receptor with Asp at position 146 of the DRY motif replaced by Met
constitutive activity in cAMP assay (cAMP production): exhibited constitutive activity
basal level activity versus wild-type MC-4 receptor [3]: higher basal level activity than its wild-type counterpart

B1: Leu325Glu CCK-BR mutant: human CCK-BR with point mutation Leu325Glu in the third intracellular loop; constitutively active (protein, UniProt P32239 1-447, looked up, variant L325E)
Gastrin/cholecystokinin type …: MELLKLNRSVQGTGPGPGASLCRPGAPLLNSSSVGNLSCEPPRIRGAGTRELELAIRITLYAVIFLMSVGGNMLIIVVLGLSRRLRTVTNAFLLSLAVSDLLLAVACMPFTLLPNLMGTFIFGTVICKAVSYLMGVSVSVSTLSLVAIALERYSAICRPLQARVWQTRSHAARVIVATWLLSGLLMVPYPVYTVVQPVGPRVLQCVHRWPSARVRQTWSVLLLLLLFFIPGVVMAVAYGLISRELYLGLRFDGDSDSDSQSRVRNQGGLPGAVHQNGRCRPETGAVGEDSDGCYVQLPRSRPALELTALTAPGPGSGSRPTQAKELAKKRVVRMLLVIVVLFFLCWLPVYSANTWRAFDGPGAHRALSGAPISFIHLLSYASACVNPLVYCFMHRRFRQACLETCARCCPRPPRARPRALPDEDPPTPSIASLSRLSYTTISTLGPG
agonist-independent constitutive activity (inositol phosphate production) [4]: triggers constitutive production of inositol phosphates to levels exceeding wild-type CCK-BR
basal level activity compared to wild-type CCK-BR [5]: increased basal level activity compared to the wild-type CCK-BR

B2: Asn150Ala rat mu opioid receptor: rat mu opioid receptor with Asn150Ala point mutation at position 150 of SEQ ID NO: 1; constitutively active (protein, listed as Rattus norvegicus)
chain: MDSSTGPGNTSDCSDPLAQASCSPAPGSWLNLSHVDGNQSDPCGLNRTGLGGNDSLCPQTGSPSMVTAITIMALYSIVCVVGLFGNFLVMYVIVRYTKMKTATNIYIFNLALADALATSTLPFQSVNYLMGTWPFGTILCKIVISIDYYAMFTSIFTLCTMSVDRYIAVCHPVKALDFRTPRNAKIVNVCNWILSSAIGLPVMFMATTKYRQGSIDCTLTFSHPTWYWENLLKICVFIFAFIMPILIITVCYGLMILRLKSVRMLSGSKEKDRNLRRITRMVLVVVAVFIVCWTPIHIYVIIKALITIPETTFQTVSWHFCIALGYTNSCLNPVLYAFLDENFKRCFREFCIPTSSTIEQQNSTRVRQNTREHPSTANTVDRTNHQLENLEAETAPLP
stimulation of basal level activity [6]: *6.5-fold stimulation of basal level activity.
stimulation of basal level activity ([6]; listed as Asn150Ala mutant mu opioid receptor): approximately 6.5 fold
Ligand Induced Activity (Light Emission) [6]: 86,996
Basal Activity (Light Emission) [6]: *56,498

B3: wild-type rat mu opioid receptor: wild-type rat mu opioid receptor (SEQ ID NO: 1), Gαi coupled receptor, comparator (protein, listed as Rattus norvegicus)
chain: MDSSTGPGNTSDCSDPLAQASCSPAPGSWLNLSHVDGNQSDPCGLNRTGLGGNDSLCPQTGSPSMVTAITIMALYSIVCVVGLFGNFLVMYVIVRYTKMKTATNIYIFNLALADALATSTLPFQSVNYLMGTWPFGTILCKIVISIDYYNMFTSIFTLCTMSVDRYIAVCHPVKALDFRTPRNAKIVNVCNWILSSAIGLPVMFMATTKYRQGSIDCTLTFSHPTWYWENLLKICVFIFAFIMPILIITVCYGLMILRLKSVRMLSGSKEKDRNLRRITRMVLVVVAVFIVCWTPIHIYVIIKALITIPETTFQTVSWHFCIALGYTNSCLNPVLYAFLDENFKRCFREFCIPTSSTIEQQNSTRVRQNTREHPSTANTVDRTNHQLENLEAETAPLP
Ligand Induced Activity (Light Emission) [6]: 87,461
Basal Activity (Light Emission) [6]: 8,436

From patent US20040049800A1, “Rapid methods for assessing therapeutic activity using animals expressing constitutively active G protein coupled receptors” (priority 2002, published 2004)
